Where a chain is given by its changes, count along the chain named.
B1: 105 bp cognate TGAATTC (dsDNA)
DNA 1: TAAGTTGGGTAACGCCAGGGTTTTCCCAGTCACGACGTTGTAAAACGACGGCCAGTGAATTCGAGCTCGGTACCCGGGGATCCTCTAGAGTCGACCTGCAGGCAT
DNA 2: ATGCCTGCAGGTCGACTCTAGAGGATCCCCGGGTACCGAGCTCGAATTCACTGGCCGTCGTTTTACAACGTCGTGACTGGGAAAACCCTGGCGTTACCCAACTTA
B2: 105 bp TGACTTC (third base A to C) (dsDNA)
DNA 1: B1 DNA 1 with A59C
DNA 2: B1 DNA 2 with T47G
B3: 105 bp TTAATTC (first base G to T) (dsDNA)
DNA 1: B1 DNA 1 with G57T
DNA 2: B1 DNA 2 with C49A
B4: 105 bp TGCATTC (second base A to C) (dsDNA)
DNA 1: B1 DNA 1 with A58C
DNA 2: B1 DNA 2 with T48G
B5: 105 bp AGAATTC (5' flank T to A) (dsDNA)
DNA 1: B1 DNA 1 with T56A
DNA 2: B1 DNA 2 with A50T

These binders were tested against T1, EcoRI restriction endonuclease (UniProt P00642 1-277) (assay: nanopore rupture with qPCR).
T1 sequence (P00642 whole entry): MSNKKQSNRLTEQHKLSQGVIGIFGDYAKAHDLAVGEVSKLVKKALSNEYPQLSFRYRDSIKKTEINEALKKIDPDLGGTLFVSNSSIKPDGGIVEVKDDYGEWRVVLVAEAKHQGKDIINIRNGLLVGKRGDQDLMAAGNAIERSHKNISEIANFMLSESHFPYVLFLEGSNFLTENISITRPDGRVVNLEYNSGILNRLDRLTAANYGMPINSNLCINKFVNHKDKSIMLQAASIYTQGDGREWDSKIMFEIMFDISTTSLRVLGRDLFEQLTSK

Binder	binding signal
B1	2.16 ± 0.08 V (threshold voltage)
B2	1.11 ± 0.08 V (threshold voltage)
B3	1.17 ± 0.09 V (threshold voltage)
B4	0.87 ± 0.06 V (threshold voltage)
B5	1.62 ± 0.07 V (threshold voltage)

Target: T1, EcoRI restriction endonuclease
Assay: nanopore rupture with qPCR
Remark: another data set of the same source

Binder	binding signal
B1	2.09 ± 0.06 V (threshold voltage)
B2	1.02 ± 0.08 V (threshold voltage)
B3	1.16 ± 0.03 V (threshold voltage)
B4	0.93 ± 0.06 V (threshold voltage)
B5	1.84 ± 0.05 V (threshold voltage)

Target: T1, EcoRI restriction endonuclease
Assay: nanopore rupture with qPCR
Remark: another data set of the same source

Binder	binding signal
B1	2.08 ± 0.03 V (threshold voltage)
B2	1.08 ± 0.04 V (threshold voltage)
B3	1.18 ± 0.06 V (threshold voltage)
B4	0.93 ± 0.05 V (threshold voltage)
B5	1.72 ± 0.05 V (threshold voltage)

Reference: paper PMC2709577
